Source: patent publication CN114573698A (dated 2022)
“And” between values parts separate entries of the source, which are not always exact repeats. Equal entries are not always repeated.

How the values were obtained:
[1] = target: T1, 人FcRn(β2M)-His蛋白 (human FcRn-ECD) (human, UniProt P61769 21-119); assay: indirect ELISA, plate-bound human FcRn-ECD (method of Example 2.1)
T1 construct: Bought protein (Acro FCM-H5286); also called 人FcRn-ECD; FcRn-His

[2] = target: T1, 人FcRn(β2M)-His蛋白 (human FcRn-ECD); assay: blocking ELISA pH 6.0, human IgG-biotin on plate-bound human FcRn-ECD (method of Example 4)
[3] = target: T1, 人FcRn(β2M)-His蛋白 (human FcRn-ECD); assay: blocking ELISA, human IgG on plate-bound human FcRn-ECD
α2-Fc = target: T2, α2-Fc (human); assay: Western blot on domain-Fc fusion
T2 construct: no linker is mentioned; also called FcRn功能结构域α2与人Fc融合蛋白; FcRnα2
T2 chain: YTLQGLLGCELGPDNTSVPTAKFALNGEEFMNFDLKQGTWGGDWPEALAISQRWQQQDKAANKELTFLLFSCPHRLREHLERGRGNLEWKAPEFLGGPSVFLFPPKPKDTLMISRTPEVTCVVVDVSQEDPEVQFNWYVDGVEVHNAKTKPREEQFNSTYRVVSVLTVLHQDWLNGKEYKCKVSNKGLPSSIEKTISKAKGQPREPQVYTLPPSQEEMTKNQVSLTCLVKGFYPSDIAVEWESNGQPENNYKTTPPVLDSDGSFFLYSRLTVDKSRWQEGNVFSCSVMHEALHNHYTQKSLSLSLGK

T1 sequence (chain, as listed by the source limits assumed, chain 1 of 2): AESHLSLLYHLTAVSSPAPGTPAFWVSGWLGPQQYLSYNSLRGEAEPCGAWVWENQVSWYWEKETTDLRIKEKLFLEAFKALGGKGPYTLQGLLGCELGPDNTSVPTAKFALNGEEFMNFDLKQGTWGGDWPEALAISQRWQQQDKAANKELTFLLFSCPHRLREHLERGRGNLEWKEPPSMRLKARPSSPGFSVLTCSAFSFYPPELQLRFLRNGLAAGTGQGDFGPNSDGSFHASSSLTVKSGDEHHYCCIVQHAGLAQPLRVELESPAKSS
T1 sequence (P61769 21-119 limits assumed, chain 2 of 2): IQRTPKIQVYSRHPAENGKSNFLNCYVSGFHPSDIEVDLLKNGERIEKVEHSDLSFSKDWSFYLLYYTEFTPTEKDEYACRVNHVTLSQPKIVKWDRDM

B1: SPGA01-ch102 (antibody, human IgG4 S228P, kappa)
heavy: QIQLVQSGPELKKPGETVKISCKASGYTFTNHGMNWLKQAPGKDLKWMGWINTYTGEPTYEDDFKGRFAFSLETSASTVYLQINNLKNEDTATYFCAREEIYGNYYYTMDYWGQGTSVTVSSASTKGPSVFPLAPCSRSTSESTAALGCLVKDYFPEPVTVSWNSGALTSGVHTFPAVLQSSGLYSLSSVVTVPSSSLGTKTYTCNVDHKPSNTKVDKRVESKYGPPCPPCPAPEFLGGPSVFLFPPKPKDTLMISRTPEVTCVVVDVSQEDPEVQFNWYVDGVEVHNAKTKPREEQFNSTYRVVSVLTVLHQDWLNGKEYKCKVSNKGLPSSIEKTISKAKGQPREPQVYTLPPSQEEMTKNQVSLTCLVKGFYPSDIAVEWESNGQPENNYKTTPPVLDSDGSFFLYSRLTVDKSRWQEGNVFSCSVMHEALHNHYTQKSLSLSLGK
light: DIQMTQTTSSLSASLGDRVTISCSASQGISKYLNWYQQKPDGTVKLLIYYTSILHSGVPSRFSGSGSGTDYSLTISNLEPEDIATYFCQQYSKLPPTFGGGTKLEITRTVAAPSVFIFPPSDEQLKSGTASVVCLLNNFYPREAKVQWKVDNALQSGNSQESVTEQDSKDSTYSLSSTLTLSKADYEKHKVYACEVTHQGLSSPVTKSFNRGEC
notes: also called 嵌合抗体SPGA01-ch102; SPGA1-ch102
- EC50 [1]: 0.00973 µg/mL and 0.06 nM
- IC50 [2]: 0.0514 µg/mL and 0.34 nM

B2: SPGA01-ch102mu (antibody, human IgG4 S228P, kappa)
heavy: QIQLVQSGPELKKPGETVKISCKASGYTFTNHGMNWLKQAPGKDLKWMGWINTYTGEPTYEDDFKGRFAFSLETSASTVYLQINNLKNEDTATYFCAREEIYGNYYYTMDYWGQGTSVTVSSASTKGPSVFPLAPCSRSTSESTAALGCLVKDYFPEPVTVSWNSGALTSGVHTFPAVLQSSGLYSLSSVVTVPSSSLGTKTYTCNVDHKPSNTKVDKRVESKYGPPCPPCPAPEFLGGPSVFLFPPKPKDTLYITREPEVTCVVVDVSQEDPEVQFNWYVDGVEVHNAKTKPREEQFNSTYRVVSVLTVLHQDWLNGKEYKCKVSNKGLPSSIEKTISKAKGQPREPQVYTLPPSQEEMTKNQVSLTCLVKGFYPSDIAVEWESNGQPENNYKTTPPVLDSDGSFFLYSRLTVDKSRWQEGNVFSCSVMHEALKFHYTQKSLSLSLGK
light: B1 light
notes: also called 突变的嵌合抗体SPGA01-ch102mu
- IC50 [3]: 0.0122 µg/mL and 0.08 nM
- EC50 [1]: 0.00976 µg/mL and 0.06 nM

B3: SPGA01-102 (antibody, V domains shown)
VH: QIQLVQSGPELKKPGETVKISCKASGYTFTNHGMNWLKQAPGKDLKWMGWINTYTGEPTYEDDFKGRFAFSLETSASTVYLQINNLKNEDTATYFCAREEIYGNYYYTMDYWGQGTSVTVSS
VL: DIQMTQTTSSLSASLGDRVTISCSASQGISKYLNWYQQKPDGTVKLLIYYTSILHSGVPSRFSGSGSGTDYSLTISNLEPEDIATYFCQQYSKLPPTFGGGTKLEIT
notes: Mouse monoclonal antibody from a hybridoma, purified on Protein G and detected with anti-mouse IgG; also called 鼠源抗人FcRn单克隆抗体
- binding result (α2-Fc): binds
